Assay results: a protein production outcome set (Wang et al. 2014)

Test: label from the status in PepcDB records

Which protein production does the source give for “MAGWGIRSITGTSKLRAAMLLVVVGLLSVSGWLQRLDWLVYDEIISRQSFQPDSDIVIVAIDEESLRTIGKWPWSRELHAGLIDRLSQIGSNVVALDLLLSEPDVDHPEADKRLKTAIFTHGNVVLPVAPAQNASGDRFSLIQPLASLQRRATLGHVDVELDRDGVARRTFLYAGIDIPAFPALGLALADKGSLPNRMRLLSRMPEADKTIVNTGNSWVRSREIMVPFAGPPGTYPRISYARLLNDDDLLDDLRGKIIIVGMTATGLQQGFLTPVSLTRHNYMSGVEWHASVVDMLRNGRSIYPVPEMVAIAVTVLWVLAVLLVVNIVPGRFRSLVLLVSLAAGIGLVTMLLGVFHIWLPPGVALIGTLAVYPLQSWQRINEFIQSQFITGSCLQAVFDSVQEGVITVDAKGNILYLNQESERILGARSEQLIGKPLEQLIGVCLIPDKQDRDVNGSGSADTRPDSRIQHCVLTLPSGDRRTIRVTHRALYDRWRIPAGAVVTISDISDTLEMKQQIARQANYDVLTMLPSRNFLLSRFGELAVSARQHGAALIVCLVSVDNFSKINDAFGYHSGDALLKMIADRLLKLVCSEDLIARWSGDEFMLVVDRPVREGQELQFARKVQETINRRFEINGQEVFISASIGIRISSQPDQVDEKSEIFLDEAVSAMRRVKRQGGNGFQFYASGQMNAWTREQLEFERDFRLAIENQDKALHVLFQPIVDVQQKRVVHNEVLVRWAHPTRGLLSPGDFIPLAERVGLIGQLGDLVLWISCRIAADLAKVGQAVDISVNVASRQLLHPDFLQKVAGVLERTGLPAGRLMLEITESAVISDLPRAAEALVRLKALGVAIALDDFGTGYSSLSLLRELPLDILKIDKSFIQGIEQDHPGDEKFDFAIARAIIALGDNLGLGVIAEGVETEKHMEFLRKHHCYLQQGYYFSRPLSTTQLMQFMGRPDSIRV” here?
Its protein production is “failed”.

Which protein production does the source give for “MQERIKACFTESIQTQIAAAEALPDAISRAAMTLVQSLLNGNKILCCGNGTSAANAQHFAASMINRFETERPSLPAIALNTDNVVLTAIANDRLHDEVYAKQVRALGHAGDVLLAISTRGNSRDIVKAVEAAVTRDMTIVALTGYDGGELAGLLGPQDVEIRIPSHRSARIQEMHMLTVNCLCDLIDNTLFPHQDD” here?
The protein production was “not failed”.

Which protein production does the source give for “SSSQDVLIHSDDPCHPANLICTLCKQFFHNNWCTGTGGGISIKDPNTNYYYLAPSGVQKEKMIPEDLFVMDAQTLEYLRSPKLYKPSACTPLFLACYQKKNAGAIIHTHSQNAVICSLLFGDEFRIANIEQIKAIPSGKVDPVTKKPMALSFFDTLKIPIIENMAHEDELIDDLHKTFKDYPDTCAVIVRRHGIFVWGPTIDKAKIFNEAIDYLMELAIKMYQMGIPPDCGIGEEKKHLKMASP” here?
Its protein production is “not failed”.

With “MLLSHIMGMDYIMSIITLALLLLAEILVAIILIGVSIEICSYGWKKSNGIKYSCLLLSLLLGTASILGLLAAPAYFFIQLTEKAL” as the sequence, how does the protein production read?
The protein production was “failed”.

Which protein production does the source give for “MVMSIEASCHCGETVFEVTEAPSSVTRCTCSLCAKRGSLWAYYKPAQFRLLSPPENVTTYLWGSRTVKHHFCASCGCGTYSESPDWSTGKPDFDNPKVAVNARLFDDFDLDAVPVNMIDGKNLWLEHHHHHH” here?
Its protein production is “not failed”.

Which protein production does the source give for “METRARYVLIGIFTLASILATLGFLLWLAKVQLDRTYAEYDILFTSVEGLGRASPVRYNGVDVGEVLNIAVDAEDPSLVRVRIQLAATTPVRTDTKAQVASQGVTGVSYVSLSGGAAPEPLTAEGDQWPPVIPSERSAVQALTADAPTLLAEAIALLKDIQTFTGPENRAAVESILTNADASVQNIAAITRDAAEATSRLNDFTARLDAMADRADVALASLETALEEGKGAAASARDTFEAVNRVVDRDVPPMIAQIRSAVSGIERSVAGIRNFADNGLPQYATLAAETRRTVTNLNSLIAQISRDPARFFLGSQTPSYRR” here?
Its protein production is “failed”.

With “MLVKININGKKKSVDIEPEEYLVDTLRKVGNLSVKRGCDTGCCGLCTVLIDKKPTLSCATLTLRALDKEITTIEGLENEVKEFSEVLVKEGAEQCGFCSPGFILTVLAMKDELENPTDDEIKHYLTGNLCRCTGYMGQLRAIKTYLEVK” as the sequence, how does the protein production read?
The protein production was “failed”.

For “MPQKTKDTPMMRQYFAVKNQYPDAFLFYRLGDFYEMFFDDAIKGAQLLELTLTTRNHSAENPIPMCGVPHRAVQNYIDILVDKGYKVAICEQMEDPKLAKGMVKREVIQLVTPGTTLERGAEQAKTNNYLTALIQRDQQYGFAYADLSTGELKTSVLTTNDTLINELTSLQTKEIVVDDSVASDLRDQIKTLGILISEQNNVTPQAQLSYLTQDLTVDLEQQVVERLLMYITVTQKRSLAHLQKAIAYEPSYFLKLDHNSKYNLELMKSIRTGKKQGTLLWLLDETKTAMGGRLLKQWIDRPLIVKADIETRQNKVATLLDHYFERSNLQEELTKVYDLERLAGRVAFGSVNGRDLVQLKTSLRQIPKIRYILSELDTQVFNDEVNQLDPVEDVADLIDAAIVEDAPLSVTDGGVIKDGYNEQLDQYRDAMNNGKKWIAELEAQERATTGIKNLKIGFNRVFGYYIEVTKANLAQLPKDRYERKQTLTNAERFSTPELKSHESLILEAESHSTDLEYQLFTKVRETVKKAIQRLQTLAKAVAAIDVLQSFAVVSEDYHFVRPKLTKSHDLKIVDGRHPVVEKVMGNQSYVPNNVTMSPDETVLLITGPNMSGKSTYMRQLALTVIMAQIGCFVPAKSAQLPIFDQIFTRIGATDDLISGQSTFMVEMQEANNALQHATANSLVLFDEIGRGTATYDGMALAQAIIEFVHNHIHAKTLFSTHYHELTALDQELSGLRNVHVGATEQDGELVFLHKVEPGAADKSYGVHVAKLAGMPTSLLERANKILTSLENQTSTVSTTAASIAASDAANSVAPNTAASMPVEAADESQPVESETPVAEAPVAEAGDEQLSLFAEPAVTDAKGEKVLQQLKTLNLMAMTPMDVMNQLYKWQQKLGK”, which protein production is on record?
The protein production was “failed”.

Which protein production does the source give for “PYNKNGFKVGMKLEGVDPEHQSVYCVLTVAEVCGYRIKLHFDGYSDCYDFWVNADALDIHPVGWCEKTGHKLHPPKGYKEEEFNWQTYLKTCKAQAAPKSLFENQNITVIPSGF” here?
Its protein production is “not failed”.

For “MSLADTVRMGTEGAYPPYNFINDAGEVDGFERELGDELCKRAGLTCEWVKNDWDSIIPNLVSGNYDTIIAGMSITDERDEVIDFTQNYIPPTASSYVATSDGADLSGIVAAQTATIQAGYIAESGATLVEFATPEETIAAVRNGEADAVFADRDYLVPIVAESGGELMFVGDDVPLGGGVGMGLRESDGELRGKFDAAITSMKEDGTLNTMIKKWFGEDAAVYEEGHHHHHH”, which protein production is on record?
Its protein production is “not failed”.

With “GRDYVLSANLSLGMNKMKVDKLNGTDNVIWDQNNRWKSSYNDYCLKVGDQVGLIYGFVYDGLYSMDEFYFDPTNNLQAVPWGSTAAENGTSKDAPIMDADGVEHPKTIINQISGDSNSGIATLPGKVKFKDLNGDGYITEDDRTVIGNTNPKVQGGFGLSGQWKGFDFAMNFNFMLDFDVNNATAYQLSSSESNKNKFYNVLSTFADKGWRYTRDGDGECLYKCYYIDGSLDMYRELNEGRTLWNPTDVTKKITHSYFIEDGSFLRCQDLTVGYTLPGNLTSKWGISKARFYVSASNLFIITGYSGYDPEVDIQTGLTCGMDYNRYPRSRSFVLGTNITF” as the sequence, how does the protein production read?
Its protein production is “failed”.

Which protein production does the source give for “VEIRTGEFEDIAGITDIFNFYIEHTNARFEEFPFTLENREEWFSQFSRTTKYQIYVAVENGVLQGFACSQKYRAIPAFDDTVEVSVYLAQEAKGKGLGSKLYTQLFSSIRAYGVHRILSGVALPNDASVALHKRFGFREVGIFNEYAKKHGQYISSVWLEKALNVESAL” here?
Its protein production is “failed”.

With “MKKATIAATAGIAVTAFAAPTIASASTVVVEAGDTLWGIAQSKGTTVDAIKKANNLTTDKIVPGQKLQVNNEVAAAEKTEKSVSATWLNVRSGAGVDNSIITSIKGGTKVTVETTESNGWHKITYNDGKTGFVNGKYLTDKAVSTPVAPTQEVKKETTTQQAAPAAETKTEVKQTTQATTPAPKVAETKETPVVDQNATTHAVKSGDTIWALSVKYGVSVQDIMSWNNLSSSSIYVGQKLAIKQTANTATPKAEVKTEAPAAEKQAAPVVKENTNTNTATTEKKETATQQQTAPKAPTEAAKPAPAPSTNTNANKTNTNTNTNTNTNNTNTNTPSKNTNTNSNTNTNTNSNTNANQGSSNNNSNSSASAIIAEAQKHLGKAYSWGGNGPTTFDCSGYTKYVFAKAGISLPRTSGAQYASTTRISESQAKPGDLVFFDYGSGISHVGIYVGNGQMINAQDNGVKYDNIHGSGWGKYLVGFGRV” as the sequence, how does the protein production read?
Its protein production is “failed”.

For “MEAVVLPWQIFGVRELPVERGVTMKGPRLFRAPGHVPTGLKCHPDQEHMIYPLGCTVLIQAINTKEQNFLQGHGNNVSCLAISRSGEYIASGQVTFMGFKADIILWDYKNRELLARLSLHKGKIEALAFSPNDLYLVSLGGPDDGSVVVWSIAKRDAICGSPAAGLNVGNATNVIFSRCRDEMFMTAGNGTIRVWELDLPNRKIWPTECQTGQLKRIVMSIGVDDDDSFFYLGTTTGDILKMNPRTKLLTDVGPAKDKFSLGVSAIRCLKMGGLLVGSGAGLLVFCKSPGYKPIKKIQLQGGITSITLRGEGHQFLVGTEESHIYRVSFTDFKETLIATCHFDAVKDIVFPFGTAELFATCAKKDIRVWHTSSNRELLRITVPNMTCHGIDFMRDGKSIISAWNDGKIRAFAPETGRLMYVINNAHRIGVTAIATTSDCKRVISGGGEGEVRVWQIGCQTQKLEEALKEHKSSVSCIRVKRNNEECVTASTDGTCIIWDLVRLRRNQMILANTLFQCVCYHPEEFQIITSGTDRKIAYWEVFDGTVIRELEGSLSGSINGMDITQEGVHFVTGGNDHLVKVWDYNEGEVTHVGVGHSGNITRIRISPGNQYIVSVSADGAILRWKYPYTS”, which protein production is on record?
The protein production was “failed”.

Which protein production does the source give for “GQEYRALPGADTGRPDLDRSYALVYPAPRPKALLLLVPGLLGGSTNFALLAERLRAMAPGLEVWAWERRANGLEDRRGFLREDPVAYYRALALPDLTPLRAWGLEVHLKDLDLAVEAARARAPVVLAGHSLGAALAGLYALLHGEKLSGLVLLDGAPGVVPLAEEAFYEGADLPFGRLVGYRAFLRGEGSPAVELLGLGPKALALAEAEAFLAAKRPEEDLPFGPYRATREALALLRVDDDYSLFPVFSVSAGRAWAREGFSLLGLLQGRLVRTVRGPRAGPIAWRDTGEATDPRAFLRAFALPETGFSEWYFPYRLLLEVGGYPYVLRGLKPRALPYPVLALGAGRGLYPRAEDFRLGELFPGTEARAQVLPGLTHLDLLTEREGRTAGLLLRYLQDL” here?
The protein production was “failed”.

Which protein production does the source give for “MAQVFNFSSGPAMLPAEVLKLAQQELCDWHGLGTSVMEISHRGKEFIQVAEEAEQDFRDLLNIPSNYKVLFCHGGGRGQFAGVPLNLLGDKTTADYVDAGYWAASAIKEAKKYCAPQIIDAKITVDGKRAVKPMREWQLSDNAAYLHYCPNETIDGIAIDETPDFGPEVVVTADFSSTILSAPLDVSRYGVIYAGAQKNIGPAGLTLVIVREDLLGKAHESCPSILDYTVLNDNDSMFNTPPTFAWYLSGLVFKWLKAQGGVAAMHKINQQKAELLYGVIDNSDFYRNDVAQANRSRMNVPFQLADNTLDKVFLEESFAAGLHALKGHRVVGGMRASIYNAMPIEGVKALTDFMIDFERRHG” here?
Its protein production is “not failed”.

Which protein production does the source give for “DQPVINFGIISTESSQNLKSIWEPFLKDMSQQTGYQVKAFFAPDYAGIIQGMRFDKVDIAWYGNKAAMEAVDRAHGEIFAQTVAASGAPGYWSLLIANKDSKIDSLEDMLANAKSLTFGNGDPNSTSGYLVPGYYVFAKNNVDPVKAFKRTLNSSHEVNALAVANKQVDVATFNTEGMERLELTQPEKARQLKVIWKSPLIPGDPLVWRNNLSDEQKNKLRDFFFKYGANAEQKKVLADLQWSKFQPSDDDQLLPIRQLELFKQRTDVANNANLGAEEKAAKLKALDEELAKLEKRMAEREQKTAANAG” here?
The protein production was “not failed”.

With “MKELTVPDTTPLLPIVDPFEQQDSEGPDSTKVYPFYRNLAEGKLTMQRCKSCGRIFYPPQAMCKHCNSTDYEWVEVPKRGKIHAFSALLLGFPMVIEEFAPFVIAVARFGDYPENGVQIVGAMFDVDYSELSIGDEVEWEILKIKGPGDKVRYWYHFRKVLEHHHHHH” as the sequence, how does the protein production read?
The protein production was “failed”.
